Laboratory results reported in article PMC10483858 (Molecular Cancer, 2023).
Where no end group is shown, it is not given here. [ ]: non-standard residue; d: D form. TrpNAc = Trp with an acetic acid moiety; Hyp = O=C(O)[C@@H]1C[C@@H](O)CN1; NMeNle = CCCC[C@H](NC)C(=O)O; NMeA = CN[C@@H](C)C(=O)O; Dab = NCC[C@H](N)C(=O)O; Scc = not defined here

Molecular target: T1, PD-L1 of the commercial HTRF PD-1/PD-L1 interaction assay
T1 construct: PD-L1 as supplied in the Cisbio HTRF kit
Assay: AlphaScreen or HTRF; commercial HTRF PD-1/PD-L1 interaction assay (Cisbio, France); pAC65 varied; data fitted with Hill's model
Conditions: both partners purified

IC50: 1.8 ± 0.16 nM
B1: pAC65 macrocyclic peptide (peptide)
chain: Y[NMeA]NP[Ala‑NH2]L[Hyp]W[Dab][TrpNAc][NMeNle][NMeNle]L[Scc]G-NH2
modifications: bridge (positions not given here); not fully specified (bridges); reading uncertain; also: macrocyclic ring, places not given here
